# Measured values: US20240270821A1, “GIP/GLP1/GCG TRI-RECEPTOR AGONISTS AND USES THEREOF” (priority 2023, published 2024)
# Starred links: 1 amine or outer side, 2 acyl side, 3 side chain; linkers in the order of their positions; H or OH if unused. Non-standard residues stand in square brackets, D forms with d. Groups on a side chain read outwards from the residue. No end group written: not given here. *: point of attachment. C20 diacid = O=C(O)CCCCCCCCCCCCCCCCCCC(=O)*; Phe(4-CN) = N#Cc1ccc(C[C@H](N)C(=O)O)cc1; αMePhe(2-F) = C[C@](N)(Cc1ccccc1F)C(=O)O; γGlu = O=C(O)[C@H](CCC(=O)[*:2])N[*:1]; αMeL = CC(C)C[C@](C)(N)C(=O)O; AEEA = NCCOCCOCC(=O)O; Aib = CC(C)(N)C(=O)O
# T1: human GIP receptor (human) (UniProt P48546)
# T1 sequence (looked up): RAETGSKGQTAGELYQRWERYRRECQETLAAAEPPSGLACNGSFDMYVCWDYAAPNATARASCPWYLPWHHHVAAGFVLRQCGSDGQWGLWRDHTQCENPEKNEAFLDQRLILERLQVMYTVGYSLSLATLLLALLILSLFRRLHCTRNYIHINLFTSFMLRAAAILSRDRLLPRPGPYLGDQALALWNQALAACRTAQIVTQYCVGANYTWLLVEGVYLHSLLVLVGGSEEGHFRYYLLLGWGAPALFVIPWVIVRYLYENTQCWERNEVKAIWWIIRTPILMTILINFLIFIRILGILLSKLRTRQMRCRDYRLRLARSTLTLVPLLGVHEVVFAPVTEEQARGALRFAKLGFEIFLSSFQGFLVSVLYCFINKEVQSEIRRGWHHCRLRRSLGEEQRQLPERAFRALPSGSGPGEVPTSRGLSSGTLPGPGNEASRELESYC
# B1: Example 345 (peptide)
# chain: Y[Aib]QGT[αMePhe(2-F)]TSDYSILLDKQAQKAFIEYLLEGGPSSGEPPPSEG-NH2
# modifications: not fully specified (residue 20)
# B2: Example 332 (peptide)
# chain: Y[Aib]QGTFTSDYSI[αMeL]LDKQAAK([AEEA-AEEA-γGlu-C20 diacid])QFVEWLIAGGPSSGEPPPAEG-NH2
# B3: Example 346 (peptide)
# chain: Y[Aib]QGT[αMePhe(2-F)]TSDFSILLDKQAQKAFIEYLLEGGPSSGEPPPSEG-NH2
# modifications: not fully specified (residue 20)
# B4: Example 338 (peptide)
# chain: Y[Aib]QGT[αMePhe(2-F)]TSDYSKLLDKIAQKAFIQYLIEGGPSSGEPPPSEG-NH2
# modifications: not fully specified (residue 20)
# B5: Example 349 (peptide)
# chain: Y[Aib]QGTFTSDYSI[αMeL]LDKQAAKQFIEYLIA[Aib]GPSSGEPPPSEG-NH2
# modifications: not fully specified (residue 20)
# B6: Example 336 (peptide)
# chain: Y[Aib]QGTFTSDYSI[αMeL]LDKQAAKQFVEWLIA[Aib]GPSSGEPPPGTG-NH2
# modifications: not fully specified (residue 20)
# B7: Example 351 (peptide)
# chain: Y[Aib]QGT[αMePhe(2-F)]TSDYSILLDAQAAKEFIEYLIEGGPSSGEPPPSEG-NH2
# modifications: not fully specified (residue 20)
# B8: Example 331 (peptide)
# chain: Y[Aib]QGT[αMePhe(2-F)]TSDYSILLDKQAAKAFIEYLIEGGPSSGEPPPSEG-NH2
# modifications: not fully specified (residue 20)
# B9: Example 344 (peptide)
# chain: Y[Aib]QGTFTSDYSK[αMeL]LDKKAQQAFIEYLLAGGPSSGEPPPSGE-NH2
# modifications: not fully specified (residue 17)
# B10: Example 348 (peptide)
# chain: Y[Aib]QGT[αMePhe(2-F)]TSDYSILLDKQAAKEFIEYLIEGGPSSGEPPPSEG-NH2
# modifications: not fully specified (residue 20)
# B11: Example 342 (peptide)
# chain: Y[Aib]QGTFTSDYSK[αMeL]LDKKAQQAFVQWLIE[dA]GPSSGEPPPSEG-NH2
# modifications: not fully specified (residue 17)
# B12: Example 343 (peptide)
# chain: YXQGTFTSDYSKXLDKKAQXAFVQWLLEGGPSSGEPPPSEG
# modifications: not fully specified; synthetic construct; SITE 2: note = 2-Aminoisobutyric Acid; SITE 13: note = alpha-methyl-leucine; SITE 17: note = Lysine is chemically modified through conjugation of the epsilon-amino group of the Lysine side chain with (2-[2-(2-Amino-ethoxy)-ethoxy]-acetyl)-(gamma-Glu)-CO-(CH2) 18-CO2H; SITE 20: n
# B13: Example 335 (peptide)
# chain: Y[Aib]QGTFTSDYSI[αMeL]LDKQAAKQFVEWLIA[Aib]GPSSGEPPPGSG-NH2
# modifications: not fully specified (residue 20)
# B14: Example 337 (peptide)
# chain: Y[Aib]QGTFTSDYSK[αMeL]LDKKAQQAFIEYLIAGGPSSGEPPPSGD-NH2
# modifications: not fully specified (residue 17)
# B15: Example 350 (peptide)
# chain: Y[Aib]QGT[αMePhe(2-F)]TSD[Phe(4-CN)]SILLDKQAQKAFIEYLLEGGPSSGEPPPSAG-NH2
# modifications: not fully specified (residue 20)
# B16: Example 353 (peptide)
# chain: Y[Aib]QGT[αMePhe(2-F)]TSD[Phe(4-CN)]SILLDKQAQKAFIQYLLEGGPSSGEPPPSEG-NH2
# modifications: not fully specified (residue 20)
# B17: Example 352 (peptide)
# chain: Y[Aib]QGT[αMePhe(2-F)]TSD[Phe(4-CN)]SILLDKQAQKAFIEYLLEGGPSSGEPPPSEG-NH2
# modifications: not fully specified (residue 20)
# B18: Example 341 (peptide)
# chain: Y[Aib]QGT[αMePhe(2-F)]TSD[Phe(4-CN)]SILLDKQAQKAFIQYLLEGGPSSGEPPPSEG-NH2
# modifications: not fully specified (residue 20)
# B19: Example 330 (peptide)
# chain: Y[Aib]QGT[αMePhe(2-F)]TSDYSKLLDKIAQKAFIEYLIEGGPSSGEPPPSEG-NH2
# modifications: not fully specified (residue 20)
# B20: Example 347 (peptide)
# chain: YXQGTXTSDXSILLDKQAQKAFIEYLLEGGPSSGEPPPSEG
# modifications: not fully specified; synthetic construct; SITE 2: note = 2-Aminoisobutyric Acid; SITE 6: note = alpha-methyl-2-fluoro-L-phenylalanine; SITE 10: note = 3-(4-Pyridyl)-L-alanine; SITE 20: note = Lysine is chemically modified through conjugation of the epsilon-amino group of the Lysine side chain with (2-[2-(2-Amino-ethoxy))
# B21: Example 333 (peptide)
# chain: Y[Aib]QGTFTSDYSI[αMeL]LDKQAAK([AEEA-AEEA-γGlu-C20 diacid])QFVEWLIA[Aib]GPSSGEPPPGEG-NH2
# B22: Example 340 (peptide)
# chain: Y[Aib]QGT[αMePhe(2-F)]TSDYSILLDKQAAKEFIEYLIEGGPSSGAPPPSEG-NH2
# modifications: not fully specified (residue 20)
# B23: Example 339 (peptide)
# chain: Y[Aib]QGT[αMePhe(2-F)]TSDYSKLLDKIAQKAFIEYLIEGGPSSGAPPPSEG-NH2
# modifications: not fully specified (residue 20)
# Tests used:
# Experiment in all cases: cell-based or functional assay
# [1] = target: hGLP-1R (Homo sapiens, UniProt P43220)
# [2] = target: human glucagon receptor (human) (UniProt P47871)
# [3] = target: T1, human GIP receptor (human)
# Sequence of hGLP-1R (P43220 24-463): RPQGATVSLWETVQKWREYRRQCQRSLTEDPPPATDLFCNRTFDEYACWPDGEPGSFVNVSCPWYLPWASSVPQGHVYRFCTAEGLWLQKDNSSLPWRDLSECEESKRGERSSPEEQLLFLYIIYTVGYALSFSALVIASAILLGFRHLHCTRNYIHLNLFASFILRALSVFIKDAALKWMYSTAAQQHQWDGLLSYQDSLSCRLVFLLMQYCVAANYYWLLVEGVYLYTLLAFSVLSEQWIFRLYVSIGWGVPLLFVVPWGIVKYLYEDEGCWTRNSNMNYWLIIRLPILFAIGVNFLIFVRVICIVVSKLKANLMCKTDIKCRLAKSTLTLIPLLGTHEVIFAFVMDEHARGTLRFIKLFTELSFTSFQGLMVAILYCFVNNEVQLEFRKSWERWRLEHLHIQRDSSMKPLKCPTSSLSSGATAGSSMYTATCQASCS
# Sequence of human glucagon receptor (human) (P47871 26-477): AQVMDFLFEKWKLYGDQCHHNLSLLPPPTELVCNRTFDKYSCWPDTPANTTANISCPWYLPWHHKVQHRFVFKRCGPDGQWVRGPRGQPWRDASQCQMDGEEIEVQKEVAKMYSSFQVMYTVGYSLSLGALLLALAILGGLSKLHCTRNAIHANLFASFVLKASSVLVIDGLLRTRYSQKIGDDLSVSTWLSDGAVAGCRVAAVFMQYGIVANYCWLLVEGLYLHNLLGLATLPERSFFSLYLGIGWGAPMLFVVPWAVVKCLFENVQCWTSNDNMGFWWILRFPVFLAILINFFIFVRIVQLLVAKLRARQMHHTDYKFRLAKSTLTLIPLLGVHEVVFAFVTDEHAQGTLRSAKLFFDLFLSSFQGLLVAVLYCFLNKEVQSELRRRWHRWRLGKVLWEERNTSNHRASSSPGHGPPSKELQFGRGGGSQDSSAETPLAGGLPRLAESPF
Binder,Relative cAMP EC50 [1],cAMP Rel EC50 (1% HSA) [1],Relative cAMP EC50 [2],cAMP Rel EC50 (1% HSA) [2],Relative cAMP EC50 [3],cAMP Rel EC50 (1% HSA) [3],"cAMP Rel EC50, nM (1% HSA) [1]","cAMP Rel EC50, nM (1% HSA) [2]","cAMP Rel EC50, nM (1% HSA) [3]"
B1,0.658 nM,256 nM,11.3 nM,3300 nM,0.0377 nM,15.3 nM,,,
B2,1.24 nM,298 nM,11.8 nM,3340 nM,0.413 nM,78.2 nM,,,
B3,1.17 nM,514 nM,15.6 nM,4310 nM,0.0738 nM,28.3 nM,,,
B4,1.22 nM,172 nM,4.02 nM,659 nM,0.0733 nM,10.9 nM,,,
B5,0.555 nM,,5.12 nM,,0.152 nM,,218 nM,2280 nM,52.6 nM
B6,0.921 nM,227 nM,7.05 nM,1740 nM,0.306 nM,64.4 nM,,,
B7,0.679 nM,,12.1 nM,,0.243 nM,,272 nM,2470 nM,57.5 nM
B8,0.663 nM,207 nM,1.66 nM,339 nM,0.148 nM,47.5 nM,,,
B9,2.56 nM,523 nM,9.05 nM,1440 nM,0.406 nM,70.7 nM,,,
B10,0.346 nM,,3.9 nM,,0.127 nM,,136 nM,1250 nM,36.4 nM
B11,0.419 nM,62 nM,10.2 nM,2130 nM,0.347 nM,71.3 nM,,,
B12,1.31 nM,178 nM,6.83 nM,475 nM,0.184 nM,16.7 nM,,,
B13,0.461 nM,150 nM,6.11 nM,1410 nM,0.292 nM,46.7 nM,,,
B14,0.686 nM,272 nM,5.95 nM,2950 nM,0.332 nM,99.1 nM,,,
B15,0.776 nM,,10.4 nM,,0.106 nM,,360 nM,3760 nM,33.6 nM
B16,0.634 nM,,11 nM,,0.127 nM,,222 nM,3080 nM,53.7 nM
B17,0.967 nM,,16.4 nM,,0.245 nM,,407 nM,4020 nM,34.1 nM
B18,1.62 nM,395 nM,10.7 nM,2930 nM,0.213 nM,49.6 nM,,,
B19,0.63 nM,91.8 nM,3.91 nM,398 nM,0.0783 nM,7.33 nM,,,
B20,0.798 nM,,8.88 nM,,0.0634 nM,,254 nM,3650 nM,17.3 nM
B21,0.705 nM,182 nM,7.09 nM,1410 nM,0.265 nM,36.3 nM,,,
B22,0.648 nM,246 nM,2.02 nM,647 nM,0.189 nM,60.4 nM,,,
B23,1.06 nM,192 nM,6.81 nM,1510 nM,0.101 nM,28.8 nM,,,
